We go through 1 protein from FireProtDB (doi:10.1002/pro.164).

For this series the following is noted: Vigna radiata; pH 7; 37 °C; GdnHCl; Fluorescence; Tris-HCl 10 mM; NaCl 100 mM; whole UniProt chain shown.

B1: wild type, Q6T418 (protein)
chain: MERKTFSFLFLLLLVLASDVAVERGEARTCMIKKEGWGKCLIDTTCAHSCKNRGYIGGNCKGMTRTCYCLVNC
Consider B1, for which the “denaturant midpoint (higher = more stable)” value is 4.17 M.
